# Test results reported in PMC13376213, “Systematic discovery of motif-based interactions of the auxiliary domains of USP family deubiquitinases” (Nature Communications, 2026).
# How the values were obtained:
# FLAG-USP33 = experiment: IP-MS of FLAG-USP33 and variants vs empty vector; assay type: cell-based, human
# Method: For transfection, 1x10^6 HEK293 cells were seeded in 10 cm dishes with DMEM, 10% FBS, 1% L-G (without antibiotic) medium, incubated at 37 °C, with 5 % CO2 for 24 h. Cells were transfected with a transfection mix containing […] of Opti-MEM (Thermo Fisher Scientific), 20 μL of PEI stock (1 mg/mL) and […] of the desired cDNA. For co-transfection, 2.5 μg of DNA of each plasmid was used. The mix was vortexed for 15 s and incubated at room temperature for 15–20 min. The transfection mix was added to the dish and gently mixed. Plates were incubated at 37 °C for 36–48 h before harvesting. For USP33 constructs, 5 μM Bortezomib (proteasome inhibitor) was added 4 hours before harvesting the cells.
# FLAG fusion proteins were immunoprecipitated from HEK293 cells transfected with plasmids encoding the protein of interest using the anti-FLAG M2 affinity gel from Sigma-Aldrich. Cell pellets were lysed with 100–200 μL/per dish lysis buffer (Pierce RIPA buffer, 1X protease inhibitor (Roche), 50 unit/μL of Benzonase Nuclease) rotating at 4 °C for 30–45 min. […] The cell lysate was clarified by centrifugation at 17,000 x g, at 4 °C for 12 min, and the supernatant was transferred to a clean, pre-chilled low-binding Eppendorf tube. […] The IP samples were centrifuged at 6500 x g at 4 °C for 30 s. The supernatant containing the unbound proteins was transferred to a clean tube. The resin was washed three times with 500 μL of TBS, centrifuged at 6500 x g at 4 °C for 30 s. The bound FLAG fusion protein was eluted with 100 μL of 150 ng/μL 3X FLAG peptide (Sigma) in TBS and incubated in the cold room for 1 h or overnight. The tube was centrifuged at 6500 x g at 4 °C for 30 s; the eluted proteins were transferred to a clean tube. The eluted proteins were prepared for analysis by western blot or Mass Spectrometry.
# Immunoprecipitation (IP) was carried out as described above; four technical replicates of each IP condition were performed, and the empty vector was used as a negative control. The eluted protein was processed following the Strap-micro protocol (Protifi). The IP elution containing 1–100 μg protein was 1:1 mixed with 2X lysis buffer (10% SDS, 100 mM TEAB pH 8.5). […] Samples were vortexed, mixed with 165 μL of 100 mM TEAB in 90% methanol, and passed through an S-Trap micro column at 4000 g for 30 s to trap the proteins. The column was washed with 150 μL of 100 mM TEAB in 90% methanol (at 4,000 x g for 30 seconds) three times. The S-Trap column was centrifuged again and transferred to a clean 2 mL tube for digestion with 20 μL of digestion buffer (1 μg trypsin per 10 μg sample in 50 mM TEAB), at 37 °C overnight in a thermomixer without shaking. The digested peptides were eluted with […] of 50 mM TEAB in water, […] of 0.2 % formic acid in water, and […] of 50 % acetonitrile in water, centrifuging at 4000 x g for 1 min each time. The three elutions were pooled in a low-binding tube, placed on dry ice until frozen, dried in a SpeedVac vacuum (Thermo Scientific), and proceeded with the LCMS analysis.
# Eluted peptides were resuspended in water supplemented with 0.015% dodecyl maltoside and 0.1% formic acid and were injected on a Vanquish Neo UHPLC System operating in trap and elute mode coupled to an Orbitrap Astral Mass Spectrometer (Thermo Fisher Scientific). […] Eluted peptides were analyzed using data-independent acquisition mode on the mass spectrometer.
# Peptides were searched against the Uniprot Swissprot Human database (released on 02/01/2023) supplemented with the USP20 and USP33 mutants using DiaNN (v1.9.0)[62] operating in library-free mode. Data filtering and statistical analysis were carried out in Python (v3.9.0) using the packages pandas, numpy, sklearn, scipy, rpy2, Plotnine, and Plotly and R (v4.4.3) using the package limma.
# Protein groups identified with a single peptide or quantified in fewer than three replicates in at least 1 condition were filtered out. […]
# FLAG-USP20 = experiment: IP-MS of FLAG-USP20 and variants vs empty vector; assay type: cell-based, human
# Method: For transfection, 1x10^6 HEK293 cells were seeded in 10 cm dishes with DMEM, 10% FBS, 1% L-G (without antibiotic) medium, incubated at 37 °C, with 5 % CO2 for 24 h. Cells were transfected with a transfection mix containing 970 mL of Opti-MEM (Thermo Fisher Scientific), 20 μL of PEI stock (1 mg/mL) and 5 mg of the desired cDNA. For co-transfection, 2.5 μg of DNA of each plasmid was used. The mix was vortexed for 15 s and incubated at room temperature for 15–20 min. The transfection mix was added to the dish and gently mixed. Plates were incubated at 37 °C for 36–48 h before harvesting. For USP33 constructs, 5 μM Bortezomib (proteasome inhibitor) was added 4 hours before harvesting the cells.
# FLAG fusion proteins were immunoprecipitated from HEK293 cells transfected with plasmids encoding the protein of interest using the anti-FLAG M2 affinity gel from Sigma-Aldrich. […] The cell lysate was clarified by centrifugation at 17,000 x g, at 4 °C for 12 min, and the supernatant was transferred to a clean, pre-chilled low-binding Eppendorf tube. […] The IP samples were centrifuged at 6500 x g at 4 °C for 30 s. The supernatant containing the unbound proteins was transferred to a clean tube. The resin was washed three times with 500 μL of TBS, centrifuged at 6500 x g at 4 °C for 30 s. The bound FLAG fusion protein was eluted with 100 μL of 150 ng/μL 3X FLAG peptide (Sigma) in TBS and incubated in the cold room for 1 h or overnight. The tube was centrifuged at 6500 x g at 4 °C for 30 s; the eluted proteins were transferred to a clean tube. The eluted proteins were prepared for analysis by western blot or Mass Spectrometry.
# Immunoprecipitation (IP) was carried out as described above; four technical replicates of each IP condition were performed, and the empty vector was used as a negative control. The eluted protein was processed following the Strap-micro protocol (Protifi). The IP elution containing 1–100 μg protein was 1:1 mixed with 2X lysis buffer (10% SDS, 100 mM TEAB pH 8.5). […] Samples were vortexed, mixed with 165 μL of 100 mM TEAB in 90% methanol, and passed through an S-Trap micro column at 4000 g for 30 s to trap the proteins. The column was washed with 150 μL of 100 mM TEAB in 90% methanol (at 4,000 x g for 30 seconds) three times. The S-Trap column was centrifuged again and transferred to a clean 2 mL tube for digestion with 20 μL of digestion buffer (1 μg trypsin per 10 μg sample in 50 mM TEAB), at 37 °C overnight in a thermomixer without shaking. The digested peptides were eluted with 40 mL of 50 mM TEAB in water, 40 mL of 0.2 % formic acid in water, and 40 mL of 50 % acetonitrile in water, centrifuging at 4000 x g for 1 min each time. The three elutions were pooled in a low-binding tube, placed on dry ice until frozen, dried in a SpeedVac vacuum (Thermo Scientific), and proceeded with the LCMS analysis.
# Protein groups identified with a single peptide or quantified in fewer than three replicates in at least 1 condition were filtered out. Protein group intensities were median normalized and missing values were imputed using a Gaussian distribution centered on the median with a downshift of 1.8 and width of 0.3 (relative to the standard deviation).
# [1] = IP-MS, FLAG-USP20 UBP mutant vs EV, comparison USP20_E55K_D59R/EV, Limma
# [2] = IP-MS, FLAG-USP20 vs EV, comparison USP20_wt/EV, Limma
# [3] = Table S7b USP20 MS_and_motif, bait USP20
# [4] = IP-MS, FLAG-USP20-ΔDUSP2 vs EV, comparison bh_2 Sample_Limma_ImpMedInt_USP20_DUSP2_domain/EV
Molecule,log2_FC (FLAG-USP20; [1]),log2_FC (FLAG-USP20; [2]),log2_FC (FLAG-USP20; [3]),log2_FC (FLAG-USP20; [4]),further results
"ILVBL (protein, UniProt A1L0T0 1-632, looked up) 2-hydroxyacyl-CoA lyase 2: METPAAAAPAGSLFPSFLLLACGTLVAALLGAAHRLGLFYQLLHKVDKASVRHGGENVAAVLRAHGVRFIFTLVGGHISPLLVACEKLGIRVVDTRHEVTAVFAADAMARLSGTVGVAAVTAGPGLTNTVTAVKNAQMAQSPILLLGGAASTLLQNRGALQAVDQLSLFRPLCKFCVSVRRVRDIVPTLRAAMAAAQSGTPGPVFVELPVDVLYPYFMVQKEMVPAKPPKGLVGRVVSWYLENYLANLFAGAWEPQPEGPLPLDIPQASPQQVQRCVEILSRAKRPLMVLGSQALLTPTSADKLRAAVETLGVPCFLGGMARGLLGRNHPLHIRENRSAALKKADVIVLAGTVCDFRLSYGRVLSHSSKIIIVNRNREEMLLNSDIFWKPQEAVQGDVGSFVLKLVEGLQGQTWAPDWVEELREADRQKEQTFREKAAMPVAQHLNPVQVLQLVEETLPDNSILVVDGGDFVGTAAHLVQPRGPLRWLDPGAFGTLGVGAGFALGAKLCRPDAEVWCLFGDGAFGYSLIEFDTFVRHKIPVMALVGNDAGWTQISREQVPSLGSNVACGLAYTDYHKAAMGLGARGLLLSRENEDQVVKVLHDAQQQCRDGHPVVVNILIGRTDFRDGSIAV",,,,,"log2_FC (FLAG-USP33; IP-MS, FLAG-USP33-ΔDUSP2 vs EV, comparison bh_2 Sample_Limma_ImpMedInt_USP33_DUSP2_domain/EV): 1.755; log2_FC (FLAG-USP33; IP-MS, FLAG-USP33 vs EV, comparison USP33_wt/EV, Limma): 1.749; log2_FC (FLAG-USP33; Table S7c USP33 MS_and_motif, bait USP33): 1.749"
"CCDC85C (protein, UniProt A6NKD9 2-419, looked up) Coiled-coil domain-containing …: AKPAATAAAASEELSQVPDEELLRWSKEELARRLRRAEGEKVGLMLEHGGLMRDVNRRLQQHLLEIRGLKDVNQRLQDDNQELRELCCFLDDDRQKGRKLAREWQRFGRHAAGAVWHEVARSQQKLRELEARQEALLRENLELKELVLLLDEERAALAATGAASGGGGGGGGAGSRSSIDSQASLSGPLSGGAPGAGARDVGDGSSTSSAGSGGSPDHHHHVPPPLLPPGPHKAPDGKAGATRRSLDDLSAPPHHRSIPNGLHDPSSTYIRQLESKVRLLEGDKLLAQQAGSGEFRTLRKGFSPYHSESQLASLPPSYQDSLQNGPACPAPELPSPPSAGYSPAGQKPEAVVHAMKVLEVHENLDRQLQDSCEEDLSEKEKAIVREMCNVVWRKLGDAASSKPSIRQHLSGNQFKGPL",3.963,4.015,4.015,,
"SNAP23 (protein, UniProt O00161 1-211, looked up) Synaptosomal-associated …: MDNLSSEEIQQRAHQITDESLESTRRILGLAIESQDAGIKTITMLDEQKEQLNRIEEGLDQINKDMRETEKTLTELNKCCGLCVCPCNRTKNFESGKAYKTTWGDGGENSPCNVVSKQPGPVTNGQLQQPTTGAASGGYIKRITNDAREDEMEENLTQVGSILGNLKDMALNIGNEIDAQNPQIKRITDKADTNRDRIDIANARAKKLIDS",,,,6.953,
"MEIOC (protein, UniProt A2RUB1 1-952, looked up) Meiosis-specific coiled-coil …: MEVRRGDTCPRPHPSGLREEGLEPKVAFPGGANRCWNLGADAGSRLTDVFGSVMLTGSASFYDCYTSQSEDNVDLRQTYTPFSSTEYSSSVDSSLFCAPWSTYGDDIKQPSNSQISIKNRIQTERNDYGSETDLYGLVSNILEEQDKSQPYFAEGTCSSNLKSVWPMNTSRFADHHDLLTETKRPIDTVISQQAFYSDESVSAMEKQYLRNSNLTPQQKIDELHHGFTGLDLEEQWMYPSRSDHSNCHNIQTNDTAKTTFQEYPLIKNCFTPQTGLSDIMKESGVDIYHYGRDRICTKGLEAPLQQKRAEMFLSQFNRYNENVDYCRYPEYVHPNKAKLNKCSNFSVQDSKKLANGTPETPTVEADTYTKLFQVKPANQKKMEETIPDQQNFTFPKTTPHLTEKQFAKEAVFTADFGLTSEYGLKPHTACPANDFANVTEKQQFAKPDPPHSEYFKSVNLLSNSATSSGGINLNRPTWMNVQTKNNTPIPYRNQGNLMKLNSHLSAASKGSNHSSDFPQLSSTNLTPNSNLFQKYCQENPSAFSSFDFSYSGAERIQSVNHIEGLTKPGEENLFKLVTDKKIKQPNGFCDNYSAQKYGIIENVNKHNFQAKPQSGHYDPEEGPKHLDGLSQNTYQDLLESQGHSNSHRTRGGDNSRVNRTQVSCFSNNYMMGDLRHNQCFQQLGSNGFPLRSTHPFGHSVVPLLDSYDLLSYDDLSHLYPYFNMMYGDNSFSGLMPTFGFQRPIKTRSGPASELHIRLEECCEQWRALEKERKKTELALAKNYPGKKVSSTNNTPVPRLTSNPSRVDRLIVDELRELARVVTLLGKMERLRSSLLHASISTALDRHLESIHIVQSRRKDEIVNASNRQRQGVPRCQDDRDVFALASAIKEMCVATRKTRTALWCALQMTLPKTASTADVVKPLQDTVNCEDKVHESINSSNPMNQRGETNKH",4.883,5.071,5.071,,"log2_FC (FLAG-USP20; IP-MS, FLAG-USP20-ΔUBP vs EV, comparison bh_2 Sample_Limma_ImpMedInt_USP20_UBP_domain/EV): 4.277"
"RTL8C (protein, UniProt O15255 1-206, looked up) CAAX box protein 1: MGGGRGLLGRETLGPGGGCSGEGPLCYWPPPGSPPAPSLRASLPLEPPRCPLRSCSLPRSACLCSRNSAPGSCCRPWASLWSEPPPSPSSQPAPPMYIWTLSCAPAASWAPVTHWTDHPLPPLPSPLLPTRLPDDYIILPTDLRCHSHRHPSHPTDRLLLLVIWTHLGGIWAGHSPWTVIQTAGRPPRDLSPSARPISSPPPETSC",5.261,,,4.856,
"RCCD1 (protein, UniProt A6NED2 1-376, looked up) RCC1 domain-containing …: MAEERPGAWFGFGFCGFGQELGSGRGRQVHSPSPLRAGVDICRVSASWSYTAFVTRGGRLELSGSASGAAGRCKDAWASEGLLAVLRAGPGPEALLQVWAAESALRGEPLWAQNVVPEAEGEDDPAGEAQAGRLPLLPCARAYVSPRAPFYRPLAPELRARQLELGAEHALLLDAAGQVFSWGGGRHGQLGHGTLEAELEPRLLEALQGLVMAEVAAGGWHSVCVSETGDIYIWGWNESGQLALPTRNLAEDGETVAREATELNEDGSQVKRTGGAEDGAPAPFIAVQPFPALLDLPMGSDAVKASCGSRHTAVVTRTGELYTWGWGKYGQLGHEDTTSLDRPRRVEYFVDKQLQVKAVTCGPWNTYVYAVEKGKS",4.331,,,4,
